The stoichiometry N is a count of units in the complex or per binding partner.

The target in this assay is NavMs prokaryotic sodium channel, wild type, full-length construct (Magnetococcus marinus (Magnetococcus sp. strain MC-1)) (UniProt A0L5S6). Briefly: crystal structure; sitting drop, 0.05 M NaCl, 0.1 M MES pH 6.5, 37.8% v/v PEG 400, 4% ethylene glycol; protein purified in HEGA-10; molecular replacement with NavAb (PDB 3RVY).

The substance “NavMs prokaryotic sodium channel, wild type, full-length construct (from UniProt A0L5S6 1-274) (natural protein)” displayed a stoichiometry N of 4.

The record behind these values is PMC5316852.
